Literature values, collected in PMC3012091, “The Concentration of Soluble Extracellular Amyloid-β Protein in Acute Brain Slices from CRND8 Mice” (PLoS ONE, 2010).
Read-outs that look alike come from different tables or passages of the source.

Tests used:
[1] = human CNS
Text: Constant turn-over of Aβ was included in some model calculations by adjusting the concentrations of Aβ at every location within the tissue after each iterative step of the model.

[2] = APP overexpressing mice
Text: Constant turn-over of Aβ was included in some model calculations by adjusting the concentrations of Aβ at every location within the tissue after each iterative step of the model. […] E ... || The half-life of Aβ in the model is a more likely source of inaccuracy as the half-lives of Aβ species are less clear from the literature. There are few published half-life measurements from APP overexpressing mice.

[3] = test system: long-term potentiation (LTP); conditions: 50–200 pM Aβ applied to acute hippocampal slices
Text: At these concentrations Aβ affects long-term potentiation (LTP) when applied to acute hippocampal slices.

[4] = postmortem extraction of Aβ from brain tissue

Substance	half-life of Aβ [1] [h]	half-life ([2]; in vivo dialysis) [h]	effect on LTP [3]	half-life [2, 4] [h]
Amyloid-β protein [Aβ]	8 to 9	4	both inhibition and enhancement	
Aβ1–40: amyloid-β protein 1–40, literature half-life only				≤ 0.7
Aβ1–42: endogenous soluble extracellular amyloid-β protein 1–42 of CRND8 mice, measured by human beta amyloid(1–42) ELISA				≤ 1.7
